# From the nanobody polyreactivity screen of Harvey et al. (2022)
# Assay: yeast display, Sf9 membrane polyspecificity reagent, FACS + sequencing; frameworks hold sequencing errors
# Summary of the method: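 Using colony PCR, genes from sorted yeast display clones were amplified, then sequenced on MiSeq at 2 × 250 and filtered by CDR length. The clones had been stained with 10% biotinylated, detergent-solubilized Sf9 membrane reagent for 1 hour at 4 °C and sorted by FACS into low and high (top ~1%) gates on anti-HA and streptavidin fluorescence. Polyreactivity labels come from the gate of origin.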
row,Sequence,polyreactivity (PSR sort gate)
1,QVQLVESGGGLVQAGGSLRLSCAASGITFNDYALGWYRQAPGKERELDAAIDWSGGRTYYADSVKGRFTISRDNAKNTVYLQMNSLKPEDTAVYYCAAVLYSRLFWYRLDYWGQGTQVTVSS,low polyreactivity
2,QVQLVESGGGLVQAGGSLRLSCAASGRIFPVYAMGWYRQAPGKERELVAAIRRTGGSTYYADSVKGRFTISRDNAKNTVYLQLNRLKPEDTAVYYCSVSSQPPLSRYGRFGVGYWGQGTQVTVSS,high polyreactivity
3,QVQLVESGGGLVQAGGSLRLSCAASGRTFWYNAMGWYSPAPGKERELLAVITKSGGSTYYADSVKGRFTISRDNAKNTVYLQMNSLKPEDTAVYYCAADTYVARSNYRYRGFDYWGQGTQVTVSS,high polyreactivity
4,QVQLVESGGGLVQAGGSLRLSCAASGITFDYYAMGWYRQAPGKERELVADISSSGGSTYYADSVKGRFTISRDNAKNSVYLQMNSLKPEDTAVYYCAAVVTKYPTTGFGYWGQGTQVTVSS,high polyreactivity
5,QVQLVESGGGLVQAGGSLRLSCAASGFTFYSYPLGWYRQAPGKERELVAAITRGGRTYYADSVKGRFTISRDNAKTTVYLQMNSLKPDDSAVSYCNATAGHGYYYWGQGTQVTVSS,high polyreactivity
6,QVQLVESGGGLVQAGGSLRLSCAASGITFGRNTMGWYRQAPGKERELVAAIDSGGNTYADSVKGRFTISRDNAKNTVYLQMNSLKPEDTAVYYCDVDGGEFSSYGYWGQGTLVTVSS,low polyreactivity
7,QVQLVESGGGLVQAGGSLRLSCAASGLIFTTNAMGWYRQAPGKERELVAAISTSTGRTYYADSVKGRFTISRDTAKNTVYFQMNSLKPEDTAVYYCAADGFLSYYGFWRYEYWGQGTQVTVSS,high polyreactivity
8,QVQLVESGVGLVQAGGSLRLSCAASGSTFTYYAMGWYRQAPGKESELVAAITASGTSTYYPDSVKGRFTISRDYAKNTVYLQMNSLKPEDTAVYYCAATRFKWTRIYPYYTGQGYNYWGQGTQVTVSS,high polyreactivity
9,QVQLVESGGGLVQAGGSLRLSCAASGRNSIYYALGWYRQAPGTDRELVAAITTTGSTKYADSVKGRFTISRDNAKKTVDLQMNSLKPEDTADYYCAARFSRWWVRYGYWGQATQVTVSS,high polyreactivity
10,QVQLVESGGGLVQAGGSLRLRCAASGRTFDGYAMGWYRQAHGKERELVAAISKRGGSTYYADSVKGRCTISRDNAKNSVYFQMNSLKPEDTAVYYCNKRYFGDQTWVGGDSWGQGTQVTVSS,high polyreactivity
11,QVQLVESGGGLVQAGGSLRLSCAASGNIYNYAMGWYIQAPGKERELVAAIRSSDGSTYYADSVKGRFTISRDNAKNTVYLQMNSLKPEDTAVYDCARRTRRTSTYYYYGSRYYYWGQGTQVTVSS,high polyreactivity
12,QVQLVESVGGLVQAGGSLRLSCAASGRIFYFNGMGWYRQAPGKERELVAAITISTGSTYYADSVKGRFTISRDNAKNTVYLQMNSLKPEDTAVYYCNVEFEYSGWKSFDYWGQGTQVTVSS,low polyreactivity
13,QVQLVESGGGLVQAGGSLRLSCAASGSTFPAYTMGWYRQAPGKERELVAAINVSSGGSTYYADSVKGRFTISRDNAKNTVYLQMNSLKPEDTAVYYCATRYVTTGYDYWGQGTQVTVSS,low polyreactivity
14,QVQLVESGGGLVQAGGSLRLSCAACGSIIYRNAMGWYRPAPGKERELVAAIRTSSGSTYYADSVKGRFTISRDNAKNTVYLQMNSLKPEDTAVYYCAAPRLYGYYSWGQGTQVTVSS,low polyreactivity
15,QVQLVESGGGFVQAGGSLRLSCAASGSIFYYNAMGWYRQAPGKEREFVAAITTSAGSTYYADSVKGRFTISRDNEKNTVYLQMYRLKPEDTAVYYCAASPGRRRRPYASLFRYDYWGQGTQVTVSS,high polyreactivity
16,QVQLVESGGGLVQAGGSLRLSCAASGFTLEDYTMGWYRQAPGKERELVARITSGGSTNYADSVKGRFTISRDNAKNTVYLQMKSLKPEDTAVYYCNARYAWINMDYWGQGTQVTVSS,low polyreactivity
17,QVQLVESGGGLVQAGGSLRLSCAASGRNFFTYAMGWYRQAPGKERELVASITGSGGSTYYADSVKGRFTISRDNAKYTVYLQMNSLKPEDTAVYYCAAALFRRQLYRKFYYWGQGTQVTVSS,low polyreactivity
18,QVQLEESGGGLVQAGGSLRLSCAASGSIFWLYAMGWYRQAPGKEREFVAAITTSGSSTRYADSVKGRFTISRDNAKNTVYVQMNSLKPEDTAVYYCAARNRTFFQPTYYYWGQGTQVTVSS,high polyreactivity
19,QGQRVESAGGLVQAGGSLRLSCDASGRIFDNYAMGWSSPAPGKERELVAAISRAGNTYADSVKGRVTISRDNAKNTVNLQMNSLNPEETAVFYCAARLYWGRYNYWGQGTQVTVSS,high polyreactivity
20,QVQLVESGGGLVQAGGSLRLSCAASRSTFPWYAMGWYRQAPGKERELVARINSGGSTTYADSVKGRFTISRDNAKNTVYLQMNSLKPEDTAVYYCAADRWYSTYLASYYGYDYWGQGTQVTVSS,low polyreactivity
21,QVQLVESGGGLVQAGGSLRLSCAASGSSFYDNAMGWYRQAPGKERELVAGIRSTGRTYYADSVKGRFTISRDNAKNTVYLQMNSLKPEDTAVYYCAAYVGTYGEYDYWGQGTQVTVSS,low polyreactivity

row,Sequence,polyreactivity (PSR sort gate)
1,QVQLVESGGGLVQAGGSLRLSCAASGIIFRFYAMGWYRQAPGKERELVAAITSSGGSTYYADSVKGRFTISRDNAKNTVYLQMNSLKPEDTAVYYCATSTGPYRGRFYYWGQGTQVTVSS,high polyreactivity
2,QVQLVESGGGIVQAGGSLRLSCAASGFIFLPYAMGWYRQAPGKERELVARISRSGASTYYADSVKGRFTISRDNAKNTVYLQMNSLKPEDTAVYYCNAVTSWPRRDFDYWGQGTQVTVSS,high polyreactivity
3,QVQLVESGGGLVQAGGSLRLSCAASGSTFYANDMGWYRQAPGKERELVASISLGDGSTYYADSVKGRFTISRDNAKNTVYLQMNSLKPEDTAVYYCAAGFYVWYWGFNYWGQGSQVTVSS,low polyreactivity
4,QVQLVDSGGGLVQAGGSLRLSCAASGSIFPYNDMGWYRKAPGKERELVARITNGGSTNYADSVKGRFTISRDNAKNTVYLQMNSLKPEDTAVYYCNKDGTQEFAPDGHEYWGQCTQVTVSS,low polyreactivity
5,QVHLVESGGGLVQAGGSLRLSCAASGSTFSGYAMGWDRQAPGKDREFVATITSTGSTNYADSVKGRFTSSRDNAKNTVYLQMNSLNPEENAVYYCHSRYWFVERYFLHYASVRYDYWGQGTKVTVSS,low polyreactivity
6,QVQLVESGGGLVQAGGSLRLSCAASGLTFSHYAMGWYRQAPGKERELVAGISSRGGNTYYADSVKGRFTISRDNAKNTVYLQMNSLKPEDTAVYYCATPRSRTDGYDYWGQGTQVTVSS,high polyreactivity
7,QVQLVESGGGLVQAGGSLRLSCAASGRTFTRYSMGWYRQAPGKERELVAAISRSGGSTYYADSVKGRFTISRDNAKNTVYLQMNSLKPEDTAVYYCAADVYRDLAYDYWGQGTQVTVSS,high polyreactivity
8,QVQLVESGGGLVQAGGRLRLSCAASGFTFGYYTMGWYRQAPGKESELVASISRTGGRTYADSVKGRFTISRDNAKNTVFLQMNSLKPEDTAVYYCNRKKYFSYPSDYGYGYWGQGTQVTVSS,high polyreactivity
9,QVQQVESGGGLVQAGGSLRLSCAASGTFGYYAMGWYRQAPGKERELVAGITWSGGSTYYADSVKGRFTISRDNAKNTVYLQMNSLKPEDTAVYYCATSSYTGYWGQGTQVTVSS,low polyreactivity
10,QVQLVESGAGLVQAGGSLRLSCAASGLTIYVNAMGWYGQAPGKERELVATISGSGSTNYADSEKGRFTISRDDAKNTVYLQMNSLKPEDTAVYYCNAGWAQDPSNYWGQGTQVNVSS,low polyreactivity
11,QVQLLESGGGLVQAGGSLRLSCAASGRIFNYNVMGWYRQAPGKERELVAAISRRGTSTFYADSVKGRFTISRDNAKNTVYLQMNSLIPVDTAVYYCAADFYSNHYDYWGQGTQVTVSS,high polyreactivity
12,QVQLVESGGGLVQAGGSLRLSCAASGRTFFTNAMGWYRQAPGKERELVASINSGGNTTYADSVKGRFTISRDNAKNTVYIQMNSLKPEDTAVYYCAAVRSAQRWRRYYYWGQGTQVTVSS,low polyreactivity
13,QVQLVESGGGLVQAGGSLRLSCAASGSIFNIYAMGWDRQAPGKERELVAAIRWTGGSTYYADSVKGRFTISRDTAKNTVDLQMTSLKPEATAVYYCAARTSRGGHYYWGPGTQVTVSS,high polyreactivity
14,QVQLVESGGGLVQAGGSLRLSCAASGLTFYTYAMGWYRQAPGKERELVAAISTNGGSTYADSVKGRFTISRDNAKNTVYLQMNSLKPEDTAVYYCAAVYRTTRYGYWGQGTQVTVSS,low polyreactivity
15,QVQLVESGGGLVQAGGSLRLCCAASGRIFRYNAMGWYRQAPGKERELVAAITRSGGSTYYADSVKGRFTISRDNAKNTVYLQMNSLKPEDTAVYYCAKVQNGQWSTSRVPGDYQYNYWGQGTQVTVTS,high polyreactivity
16,QVQLVESAGGLVQAGGSLRLSCYASGRIFPAYAMGWYRQAPGKERELVASIRRGGITYADSVKGRFTISRDNAKNTVYLQMNSLKPEDTAVYYCNADSRGWGYHMDYWGQGTQVTVSS,low polyreactivity
17,QVQLVESCGGLVQAGGSLRLSCAASGRIFNHNAMGWYRQAPGKEMKLVAAISWRGGSTYYADSVKGRFTISRYNAKNTVYLQRNSLKPEDTAVYYCATKPSPITYKLDYWGQGTQVTVSS,high polyreactivity
18,QVQLVESGGGLVQAGGSLRLSCAASGSTFSHNAMGWYREATGKERELVAAITAGGITYYADSVKGRFTISRDNAKNTVYLQMNSLKPEETAVYYCAGDFWPSGRGVAFDYWGQGTQVTVSS,low polyreactivity
19,QVQLVESGGGLVQAGGSLRLSCAASGRTFGVNAMGWYRQAPGKERELVAAISRSGGSTYYADSVKGRFTISRDNAKTTVYLQMNSLKPEDTEVYYCAKSYFGHHLTGFGYWGQGTQVTVSS,low polyreactivity
20,QVQLQESGGGLVLAGGSLRLSCAASGSISAQAYMGWDRQAPGKEREHVAGINYGDNTNYADSVKGRFTISRDNEHRVSADEQPETGRYRVVLLRGFLELFYYYIYWGQGTQVTVSS,high polyreactivity
